Source: the supplement of paper PMC10724198
± gives the standard deviation of the averaged measurements.

Test system: Saccharomyces cerevisiae
Assay: protein stability index of tFT-peptide fusion (C-terminal peptide) (PSI (0-1 scale)); higher = more stable (slower turnover)
Details: genetic background: wild type; temperature: 30 C
Experimental: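 Multiplexed protein stability (MPS) profiling in S. cerevisiae. Random 12-aa peptides (tFT-X12 library) are fused to the C-terminus of a sfGFP-mCherry tandem fluorescent timer, after mCherry and a GGGS linker. Cells are FACS-sorted into 8 mCherry/sfGFP bins and deep-sequenced. The protein stability index (PSI) is the read-weighted bin average, scaled from 0 (unstable) to 1 (stable). Only peptides with >10 reads are reported; cells were grown at 30 °C in SC-His with glucose.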
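Note: PSI is a weighted mean of sequencing reads over stability bins, variants kept only with over 10 reads, mCherry proximal and sfGFP distal, peptide attached via GGGS linker.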

Sequence | protein stability index
VCGLLGGVWLCL | 0.611 ± 0.021
GGVSKGLGARGR | 0.601 ± 0.042
GLSDLTFFKRLF | 0.659 ± 0.036
EKSKNQKPHAAR | 0.633 ± 0.0088
LFGFLGVAACVV | 0.483 ± 0.048
DDRFNVGNLPQG | 0.672 ± 0.046
GPSRTPRHPSPP | 0.701 ± 0.053
PPSPLPSPPPTF | 0.718 ± 0.025
DVGGDGDCVVSS | 0.661 ± 0.0024
DRWIGLWGGLWV | 0.63 ± 0.018
PQWFPNYLRLLL | 0.517 ± 0.041
KKNQKKNEKHIK | 0.689 ± 0.041
PSDLPPPTPLLA | 0.63 ± 0.022
ERGEEGGRERRR | 0.7 ± 0.0073
VDLCRPLSRPTV | 0.703 ± 0.016
PHSASSVSYTLY | 0.701 ± 0.052
PSVLLAPTRRHP | 0.678 ± 0.0016
RGRWGGGRVVRG | 0.6944 ± 0.0062
VPSPPCPPHLPI | 0.655 ± 0.012
RWVGVGPEGGVA | 0.678 ± 0.068
WGTVIYGVGSGQ | 0.691 ± 0.036
PLRLPPAPPPPP | 0.617 ± 0.015
SVWCRRRRVTNS | 0.5825 ± 0.0054
ISLTHAPKTGFY | 0.695 ± 0.008
LLSPSPPLLPPL | 0.763 ± 0.036

Sequence | protein stability index
VSEGFVLGGSCG | 0.663 ± 0.0074
PPTHPPPRLTPL | 0.707 ± 0.081
LPPHSPALRLPR | 0.708 ± 0.0097
SSPLPHPSFSPS | 0.689 ± 0.017
PGLPFAPLPPPL | 0.733 ± 0.014
PSIPSNPPTPPR | 0.72 ± 0.033
CGVGGVRCGLLG | 0.667 ± 0.029
HPHRSAIIAGNH | 0.72 ± 0.0083
GGGGCVGEWWGR | 0.7423 ± 0.0039
YRVPWIVESFVD | 0.751 ± 0.087
CRRRGPWDRRSR | 0.624 ± 0.014
ARLATLSPEMAN | 0.729 ± 0.082
GMVFGLAWCGCL | 0.619 ± 0.046
AIKHMVSHSPGN | 0.683 ± 0.08
LGVVCLGADLLR | 0.693 ± 0.026
EGAVGMSGSLGV | 0.668 ± 0.063
GGLRGRPPASHR | 0.727 ± 0.074
KEKKENKRKNTT | 0.699 ± 0.051
FFRYWLRWGWGV | 0.695 ± 0.039
KNTNQKKKKKNT | 0.718 ± 0.044
GGGACRVCGCEV | 0.648 ± 0.0067
NGSSFSRTVRFM | 0.624 ± 0.038
VRNKGVAKDHCP | 0.661 ± 0.064
VGGAAVGAGGGV | 0.691 ± 0.054
RREGWYTNRERG | 0.668 ± 0.013

Sequence | protein stability index
SDDPPLSLVISL | 0.754 ± 0.02
LFHAPLFPPSSF | 0.657 ± 0.04
LLSIGTSTLFLL | 0.636 ± 0.017
PHQCLSFPPRFK | 0.744 ± 0.082
PTLTTQPNVPLN | 0.723 ± 0.038
TQRTSRDPLRAP | 0.652 ± 0.016
TIVSFYVRFLSG | 0.583 ± 0.15
TSSPHGQSVTEP | 0.67 ± 0.05
KKKKKKKNRETK | 0.655 ± 0.042
KKKKKSKKQKKK | 0.733 ± 0.019
KKKEKDKKTNKP | 0.684 ± 0.057
GLREGRRRSNDQ | 0.653 ± 0.12
EGGRGYGRGRYG | 0.685 ± 0.051
PPFTRLPPPLSS | 0.741 ± 0.062
SPETSSILLLSF | 0.612 ± 0.0035
RRKVGVFTRRWV | 0.691 ± 0.04
HVAETRLRDHGW | 0.714
PHSPSPSWFWPR | 0.76 ± 0.058
RSTVFCSTFVHD | 0.672 ± 0.014
PPAPRPPLFPYP | 0.697 ± 0.043
WWWGGGRGGMGG | 0.734 ± 0.019
PSYKRGGSYPMQ | 0.692 ± 0.049
GGLWGSGGASGG | 0.742 ± 0.073
